Measured values from paper PMC7094404 (Archives of Biochemistry and Biophysics, 2008).

Target: the molecule itself
Experiment: AUC

B1: SARS-CoV main protease, full-length wild type, C-terminal His6 (enzyme)
chain: SGFRKMAFPSGKVEGCMVQVTCGTTTLNGLWLDDTVYCPRHVICTAEDMLNPNYEDLLIRKSNHSFLVQAGNVQLRVIGHSMQNCLLRLKVDTSNPKTPKYKFVRIQPGQTFSVLACYNGSPSGVYQCAMRPNHTIKGSFLNGSCGSVGFNIDYDCVSFCYMHHMELPTGVHAGTDLEGKFYGPFVDRQTAQAAGTDTTITLNVLAWLYAAVINGDRWFLNRFTTTLNDFNLVAMKYNYEPLTQDHVDILGPLSAQTGIAVLDMCAALKELLQNGMNGRTILGSTILEDEFTPFDVVRQCSGVTFQ
Question: B1 was tested. Which Kd did it give?
Answer: 80 ± 5 nM

Question: And the koff?
Answer: 0.01 ± 0.001 s⁻¹
